In general, koff refers to a measure of how fast the partners let go of each other. Broadly, the IC50 is the midpoint of a concentration-inhibition curve.

The target in test [1] is T1, recombinant human IL-12 (human, UniProt P29459 23-219; P29460 23-328).
T1 chain 1: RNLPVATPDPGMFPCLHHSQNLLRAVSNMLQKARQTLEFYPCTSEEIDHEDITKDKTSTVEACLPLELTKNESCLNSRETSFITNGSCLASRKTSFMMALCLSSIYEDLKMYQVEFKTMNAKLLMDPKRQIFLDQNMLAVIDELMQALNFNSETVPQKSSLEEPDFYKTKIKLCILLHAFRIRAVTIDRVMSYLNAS
T1 chain 2: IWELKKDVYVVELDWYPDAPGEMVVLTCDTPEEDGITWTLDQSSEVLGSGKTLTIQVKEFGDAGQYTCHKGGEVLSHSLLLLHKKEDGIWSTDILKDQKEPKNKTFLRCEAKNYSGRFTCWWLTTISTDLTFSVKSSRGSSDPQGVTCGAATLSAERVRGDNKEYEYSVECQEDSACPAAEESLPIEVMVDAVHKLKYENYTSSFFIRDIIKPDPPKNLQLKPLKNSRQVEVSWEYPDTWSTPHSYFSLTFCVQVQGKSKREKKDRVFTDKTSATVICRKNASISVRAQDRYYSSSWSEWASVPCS
Description: Biacore. On the technique in general: SPR reads the build-up and loss of mass on a sensor chip optically.

Test [2] deals with T2, recombinant human IL-23 (p19/p40) (human, UniProt Q9NPF7 20-189; P29460 23-328).
T2 chain 1: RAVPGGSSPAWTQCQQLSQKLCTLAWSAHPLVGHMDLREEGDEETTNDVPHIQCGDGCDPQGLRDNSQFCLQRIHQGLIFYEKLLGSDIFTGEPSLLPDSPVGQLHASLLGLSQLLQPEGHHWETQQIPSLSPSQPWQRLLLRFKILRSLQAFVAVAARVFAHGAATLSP
T2 chain 2: T1 chain 2
Description: Biacore; eBiosc hIL23.

Test [3] deals with T2, recombinant human IL-23 (p19/p40). Description: alpha-screen hIL-23/hIL-23R; Fig 7. Background: In Alpha technology, singlet oxygen from a donor bead excites a nearby acceptor bead.
For test [4] the target is unchanged. Description: alpha-screen hIL-23/hIL-23R; Fig 6.
Test [5] concerns the target T1, recombinant human IL-12. The test can be described thus: Biacore.

Like-named read-outs stand apart in the source and are kept apart here.

B1: P23IL 3F11 (VHH)
VHH: EVQLVESGGGLVQAGGSLRLSCAASGSIFSINAMGWFRQAPGKERQFVAAINWSTGSTYYSDSVKGRFTISRDNAKNTVYLQMNSLKPEDTAVYFCASGYLFPSSRGSQYDYWGQGTQVTVSS
On to B1, for which the koff in the test with recombinant human IL-12 [1] was 0.00134 s⁻¹.

B2: P23IL81A12 (VHH)
VHH: EVQLVESGGGLVQAGGSLRLSCAASGRTLSSYAMGWFRQAPGKEREFVARISQGGTAIYYADSVKGRFTISRDNAKNTVYLQMNSLKPEDTAVYYCAKDPSPYYRGSAYLLSGSYDSWGQGTQVTVSS
As to B2, in test [2], the koff worked out at 0.000113 s⁻¹.

B3: P23IL119A3 (VHH)
VHH: EVQLVESGGGLVQAGGSLRLSCAASGRIFSLPASGNIFNLLTIAWHRQAPGMQRELVATINSGSRTNYADSVKGRFTISRDNAQKTVYLQMNNLKPEDTAVYYCQTSGSGSPNFWGQGTQVTVSS
For the molecule B3, the IC50 in test [3] turned out to be 0.67 nM.

B4: P23IL81G2 (VHH)
VHH: EVQLVESGGGLVQPGGSLRLSCIASGLPFSTKSMGWFRQAPGKEREFVARISPGGTSRYYGDFVKGRFAISRDNAKNTTWLQMNSLKAEDTAVYYCASGERSTYIGSNYYRTNEYDYWGTGTQVTVSS
For the molecule B4, in test [2], the koff is 0.000257 s⁻¹.

B5: 121A2-119G7 (antibody)
chain: EVQLVESGGGLVQAGGSLRLSCAASGSIFNFNYMGWFRQAPGKEREFVAAIRWSGSSTYYADSVKGRFTISRDDAKNTVALQMNSLKPEDTAIYYCALRKGIPYSTSDRVIKGVNDYDYWGQGTQVTVSSGGGGSGGGGSGGGGSGGGGSGGGGSGGGGSGGGGSEVQLVESGGGLVQAGGSLTLSCAVSGLTFNNYAMGWFRQVPGKEREFVAAISRSGLRTFYSDSVKGRFTISRDSAKSTVYVQMNNLKPEDTAVYFCAADRRTYYSEGPSLTDTLRYDYWGQGTQVTVSS
For B5, the IC50 in test [4] came out at 0.131 nM.

B6: 119A3-119G7 (antibody)
chain: EVQLVESGGGLVQAGGSLRLSCAASGRIFSLPASGNIFNLLTIAWHRQAPGMQRELVATINSGSRTNYADSVKGRFTISRDNAQKTVYLQMNNLKPEDTAVYYCQTSGSGSPNFWGQGTQVTVSSGGGGSGGGGSGGGGSGGGGSGGGGSGGGGSGGGGSEVQLVESGGGLVQAGGSLTLSCAVSGLTFNNYAMGWFRQVPGKEREFVAAISRSGLRTFYSDSVKGRFTISRDSAKSTVYVQMNNLKPEDTAVYFCAADRRTYYSEGPSLTDTLRYDYWGQGTQVTVSS
Regarding B6, in test [3], the IC50 came out at 0.132 nM.

B7: P23IL81E10 (VHH)
VHH: EVQLVESGGGLVQAGGSLRLSCVASGRTFNTYGMGWFRQAPGKEREFVAANNWSGGATSYADSVKGRFTISRDNAKNTVFLQMNTLKPEDTAVYYCAAADRGGGWLVVRENDYDYWGQGTQVTVSS
Turning to B7, the koff in the test with recombinant human IL-12 [1] and with recombinant human IL-12 [5] was 0.00266 s⁻¹ throughout.

B8: P23IL119G7 (VHH)
VHH: EVQLVESGGGLVQAGGSLTLSCAVSGLTFNNYAMGWFRQVPGKEREFVAAISRSGLRTFYSDSVKGRFTISRDSAKSTVYVQMNNLKPEDTAVYFCAADRRTYYSEGPSLTDTLRYDYWGQGTQVTVSS
For B8, the koff in test [2] stood at 0.000479 s⁻¹.

B9: P23IL3C1 (VHH)
VHH: EVQLVESGGGSVQAGGSLRLSCKVSGIMFSDKGMGWFRQAPGKERETVAATNWSGGSTYYADSVKGRFTISRDNYKNTLHLQMASLKPEDTGIYYCAAAGDSWNSRRIEDYDYWGQGTPVTVSS
Turning to B9, in the test with recombinant human IL-12 [1], the koff amounted to 0.000279 s⁻¹.

B10: P23IL3G10 (VHH)
VHH: EVQLVESGGGVVQAGESLRLSCAASGYNVKDYEMGWFRQAPGMEREFAAAISWRGSSTYYADSVKGRFTISRDNAKNTVYLQMSSLKPEDTAVYYCAAGRLYPSSRSRDYDYWGQGTQVTVSS
As to B10, in the test with recombinant human IL-12 [1], the koff was found to be 0.00244 s⁻¹.

B11: P23IL3B8 (VHH)
VHH: EVQLVESGGGLVQPGGSLRLSCAASGFTFSSSVMFWLRQAPGKGLEWLSTIKPTGSTIYPGSGKGRFTISRDNAKNTLYLQINNLKPEDTALYYCARDIGGTVRGQGTQVTVSS
In the case of B11, the koff with recombinant human IL-12 [1] is 0.00243 s⁻¹.

B12: P23IL-121A2 (VHH)
VHH: EVQLVESGGGLVQAGGSLRLSCAASGSIFNFNYMGWFRQAPGKEREFVAAIRWSGSSTYYADSVKGRFTISRDDAKNTVALQMNSLKPEDTAIYYCALRKGIPYSTSDRVIKGVNDYDYWGQGTQVTVSS
Consider B12, for which the IC50 in test [4] came out at 0.299 nM; in test [3] it was 0.27 nM.

These data come from patent publication US20110053865A1 (published 2011).
